{"source": "patent US10829528B2", "about": "“Therapeutic agents for neurological and psychiatric disorders” (VIB VZW, priority 2016, dated 2020)", "molecules": {"B1": {"name": "sAPPα: soluble amyloid precursor protein α ectodomain; mouse APP695 18-612aa, Fc tag cleaved (protein)", "chain": "LEVPTDGNAGLLAEPQIAMFCGKLNMHMNVQNGKWESDPSGTKTCIGTKEGILQYCQEVYPELQITNVVEANQPVTIQNWCKRGRKQCKTHTHIVIPYRCLVGEFVSDALLVPDKCKFLHQERMDVCETHLHWHTVAKETCSEKSTNLHDYGMLLPCGIDKFRGVEFVCCPLAEESDSVDSADAEEDDSDVWWGGADTDYADGGEDKVVEVAEEEEVADVEEEEADDDEDVEDGDEVEEEAEEPYEEATERTTSTATTTTTTTESVEEVVRVPTTAASTPDAVDKYLETPGDENEHAHFQKAKERLEAKHRERMSQVMREWEEAERQAKNLPKADKKAVIQHFQEKVESLEQEAANERQQLVETHMARVEAMLNDRRRLALENYITALQAVPPRPHHVFNMLKKYVRAEQKDRQHTLKHFEHVRMVDPKKAAQIRSQVMTHLRVIYERMNQSLSLLYNVPAVAEEIQDEVDELLQKEQNYSDDVLANMISEPRISYGNDALMPSLTETKTTVELLPVNGEFSLDDLQPWHPFGVDSVPANTENEVEPVDARPAADRGLTTRPGSGLTNIKTEEISEVKMDAEFGHDSGFEVRHQK"}}, "key": {"[1]": {"biological_target": "T1, sushi1 domain of GABABR1a (Homo sapiens, UniProt Q9UBS5)", "T1 construct": "made in house", "T1 sequence (Q9UBS5 26-97)": "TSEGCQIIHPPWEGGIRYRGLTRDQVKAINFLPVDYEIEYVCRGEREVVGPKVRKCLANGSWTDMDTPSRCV", "experiment": "BioLayer Interferometry binding of sAPPα to sushi domains", "text": "(§1) We first determined which GABAB subunit and isoform sAPPα bound. The GABABR is comprised of two subunits, the GABABR1 and the GABABR2 subunit. GABABR1 is present as two main isoforms (1a and 1b), with the only difference between these isoforms being the presence of two protein-binding sushi repeats in the ectodomain of GABABR1a (FIG. 1A-B). […] The sequence of the Sushi domain 1 is […]."}, "[2]": {"biological_target": "T1, sushi1 domain of GABABR1a", "experiment": "Isothermal titration calorimetry (ITC) with purified sushi1", "format": "binding", "settings": "25° C., read-out: dissociation constant (KD)", "method": "as §1\nAll ITC experiments were carried out on a MicroCal iTC200 system. For ITC experiments involving APP constructs expressed in HEK293 cells, the purified GABABR1a-Sushi1 domain, sAPPα, CuBDAcD, AcD and CuBD constructs were buffer-exchanged by size exclusion chromatography in 20 mM Na-HEPES pH 7.0, 150 mM NaCl supplemented with 5 mM CaCl2. Concentrated samples were diluted and degassed before the experiment at the concentrations reported in the FIG. legends. sAPP fragments (all of them at 30 μM) were placed in the MicroCal sample cell and matching buffer was placed in the reference cell. Sushi1 (300 μM) was in the syringe and was injected into the cell in a series of 1 μL injections at 25° C. All the datasets were subtracted with a reference data consisting of serial injections of Sushi1 in the cell, containing buffer only under the same conditions. For ITC experiments involving synthetic APP peptides, the Sushi-1 protein was dialysed overnight to PBS buffer. […]"}, "[3]": {"system": "primary hippocampal neurons", "experiment": "mEPSCs & mIPSCs in cultured primary hippocampal neurons (wild type)", "format": "cell-based, mouse", "method": "mEPSCs & mIPSCs are measured in cultured primary hippocampal neurons at baseline and following acute application of agonists. Excitatory terminals selectively express the sushi domain-containing GABABR1a isoform (ref18), where it functions to inhibit neurotransmitter release (ref 24). Acute exposure of primary hippocampal neurons from wild type mice to 30μM baclofen, a GABABR agonist, or 250 nM sAPPα (Fc cleaved) reduces the frequency of miniature excitatory postsynaptic currents (mEPSCs) by 68% (FIG. 8 a,b) and 39% (FIG. 8 c,d), respectively, with no effect on mEPSC amplitude (FIG. 8e). […] Acute application of 30 μM baclofen or 250 nM purified sAPPα reduces the frequency of miniature inhibitory postsynaptic currents (mIPSCs) by 63% (FIG. 8a, 9a) and 44% (FIG. 8c, 9b), respectively, which is blocked by pretreatment with the GABABR antagonist CGP55845 (CGP, 5 μM) (FIG. 8f, 9d). Application of sAPPα causes a minor (14%) reduction on mIPSC amplitude (FIG. 8e, 9c). […] Baclofen is known to reduce the frequencies of mEPSCs and mIPSCs, which we have also confirmed. […] To confirm that the agonist is acting through GABABR1a, the agonist is tested in cultures with shRNA mediated knockdown of GABABR1a or antisense oligonucleotides mediated exon skipping of the exon encoding the Sushi domain 1 of GABABR1a. Antagonists are tested by treatment in combination with the agonist, Baclofen. […] As an antagonist we test an antibody against the sushi domain sequence (SEQ ID No: 5): […] SWTDMDTPSRCV. An antibody specifically binding to this domain which acts as an antagonist increases the frequencies of mEPSCs and mIPSCs. sAPPα also reduces mEPSC and mIPSC frequency in App/Aplp1 dKO cultures (FIG. 8j, 9f), excluding the possibility that sAPPα interferes with a complex of full-length APP and GABABR1 to exert its effect on GABABR signaling.\nHippocampal neurons were cultured from E18 C57/B16 wild type mice or APP/APLP1 dKO mice (provided by Ulrike Muller46) and plated on poly-D-lysine (Millipore), and laminin (Invitrogen) coated coverslips (Nalge Nunc International). Neurons were maintained in Neurobasal medium (Invitrogen) supplemented with B27, glucose, glutamax, penicillin/streptomycin (Invitrogen) and 25 μM β-mercaptoethanol.\nSingle neurons from wild type or APP/APLP1 null mutant embryos (E18) were recorded within the large neuronal network at DIV 12-15. The intracellular whole-cell pipette medium contained (in mM): 136 KCl, 18 HEPES, 4 Na-ATP, 4.6 MgCl2, 15 Creatine Phosphate, 1 EGTA and 50 U/ml Phospocreatine Kinase (300 mOsm, pH 7.30). Regular external solution contained 2 mM/2 mM Ca2+/Mg2+(in mM: 140 NaCl, 2.4 KCl, 2 CaCl2), 2 MgCl2, 10 HEPES, 14 Glucose (300 mOsm, pH 7.30)) and TTX (1 μM). Pharmacological reagents (30 μM baclofen, 5 μM CGP), sAPLP1, full length sAPP and sAPP derived peptides (250 nM each) were bath applied (dissolved in external medium described above) using a separate gravity driven application inlet. Recordings were done in whole cell voltage clamp configuration at −70 mV with a double EPC-10 amplifier (HEKA Elektronik) under control of Patchmaster v2×32 software (HEKA Elektronik). Currents were low-pass filtered at 3 kHz and stored at 20 kHz. Patch pipettes were pulled from borosilicate glass using a multi-step puller (P-1000; Sutter Instruments). Pipette resistance ranged from 3 to 5 MΩ and was compensated to 75-80%. Only cells with series resistances <15 MΩ were included in analysis. All recordings were done at room temperature. Spontaneous events were detected using Mini Analysis program (Synaptosoft). mEPSCs and mIPSCs were separated on the basis of their distinct decay kinetics, using a threshold of 5 ms47. Baseline was determined from an average of 60 sec of recordings prior to protein or drug treatment. Effect of treatment was determined from an average of 30 sec recordings after 140 sec of protein or drug treatment."}, "[4]": {"system": "App/Aplp1 dKO primary hippocampal neurons", "experiment": "mEPSCs & mIPSCs in App/Aplp1 dKO primary hippocampal cultures", "format": "cell-based, mouse", "method": "mEPSCs & mIPSCs are measured in cultured primary hippocampal neurons at baseline and following acute application of agonists. Excitatory terminals selectively express the sushi domain-containing GABABR1a isoform (ref18), where it functions to inhibit neurotransmitter release (ref 24). Acute exposure of primary hippocampal neurons from wild type mice to 30μM baclofen, a GABABR agonist, or 250 nM sAPPα (Fc cleaved) reduces the frequency of miniature excitatory postsynaptic currents (mEPSCs) by 68% (FIG. 8 a,b) and 39% (FIG. 8 c,d), respectively, with no effect on mEPSC amplitude (FIG. 8e). […]\nSingle neurons from wild type or APP/APLP1 null mutant embryos (E18) were recorded within the large neuronal network at DIV 12-15. […] Spontaneous events were detected using Mini Analysis program (Synaptosoft). mEPSCs and mIPSCs were separated on the basis of their distinct decay kinetics, using a threshold of 5 ms47. Baseline was determined from an average of 60 sec of recordings prior to protein or drug treatment. Effect of treatment was determined from an average of 30 sec recordings after 140 sec of protein or drug treatment."}}}
{"molecule": "B1", "values": [{"measurement": "binding of sAPPα to Sushi 1 domain by BioLayer Interferometry", "setting": "[1]", "result": "direct binding"}, {"measurement": "Kd", "setting": "[2]", "result": 431, "unit": "nM"}, {"measurement": "reduction of mIPSC amplitude", "setting": "[3]; 250 nM sAPPα", "result": 14, "unit": "%"}, {"measurement": "effect on mEPSC amplitude", "setting": "[3]; 250 nM, acute exposure", "result": "no effect"}, {"measurement": "reduction of mIPSC frequency", "setting": "[3]; acute application, 30 μM baclofen, 250 nM proteins", "result": 44, "unit": "%"}, {"measurement": "reduction of mEPSC frequency", "setting": "[3]; acute exposure, 30 μM baclofen or 250 nM sAPPα (Fc cleaved), wild type mice", "result": 39, "unit": "%"}, {"measurement": "effect on mEPSC frequency", "setting": "[4]", "result": "reduces"}, {"measurement": "effect on mIPSC frequency", "setting": "[4]", "result": "reduces"}]}
